A short description of this data set: yeast display, Sf9 membrane polyspecificity reagent, FACS + sequencing; frameworks hold sequencing errors. In a few lines:
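In a synthetic yeast display library (Saccharomyces cerevisiae BJ5465), nanobody expression was induced with galactose for 36–48 hours. FACS gates were set low and high (top ~1%) using anti-HA fluorescence for expression and streptavidin fluorescence for binding of the Sf9 membrane reagent. Each polyreactivity label is drawn from the gate of origin.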
Regarding “QVQLVESGGGLVQAGGSLRLSCAASGSTFKYYAMGWYRQAPGKERELVASISRGGSTNYADSVKGRFTISRDNAKNTVYLQMNSLKPEDTAVYYCAKRRAGTAYDYWGQGTQVTVSS”, the “polyreactivity (PSR sort gate)” value is listed as “high polyreactivity”.
Take “QVQLVESWGGLVQAGGSLRLRCAASGRTIDYNAIGWYRQAPRKEREFVADISNGGTTSYADSVKGSFTFSRDNAKNTVYLHMNSLKPEVTAVYYCATLYDWSSFANSYWYFGWEEDYWGQGTQVTVSS”: the “polyreactivity (PSR sort gate)” value was “low polyreactivity”.
On to “QVQLVESGGGLLQAGGSLRLSCAASGSIFGQYAMGWYIQAPGKERELVAAISTRGGSTRYADSVKGRFTISRDNAKNTVYLQMNSLKPEDTAVYYCAARVPYIRHLAVDYWGQGTQVTVSS”, for which the “polyreactivity (PSR sort gate)” value is reported as “high polyreactivity”.
Then “QVQLVESGGALVQAGGSLRISCAASGLTFKLYTMGWYRQAPGKERELLAAISRSGTRTYYADSVKGRFTISRDNAKNTVYLLMNSLKPEDTADYYCAARTDGYRNNYWGQGTQVTVSS”, with “high polyreactivity”.
In the case of “QVQLVESGGGLVQAGGSLRLSCAASGRTFGQYAMGWYRQAPGKEREFVAGITWSGGSTSYADSVKGRFTISRDNAKNTVYLQMNSLKPEDTAVYYCIAVYWKPSLEYGYWGQGTQVTVSS”, the “polyreactivity (PSR sort gate)” value is given as “high polyreactivity”.
Turning to “QVQLVESGGGLVQAGGSLRLSCAASGSTFRRNVMGWYRQAPGKEREFVAAISYRTGSTYYADSVKGRFTISRDNAKNTVYLQMNSLKPEDTAVYYCAASSQWVGYYYWGQGTQVTVSS”, the “polyreactivity (PSR sort gate)” value is “high polyreactivity”.
In the case of “QVQLVESGGGLVQAAGSLRLSCAASGFIFHYNAMGWYRKATGKERELDASITASASRTYYADSVKGRFTISLDNAKNTVYLQMNSLKPEDTAVYYCAKAIRITITRYRFGYWVQGTQVTVSS” it was “high polyreactivity”; in that of “QVQLVESGGGLVQAGGSLRLSCAASGRTFVRNAMGWYRQAPGKERELVAAISSSGGSTYYADSVKGRFTISRDNAKNTVYLQMNSLKPEDTAVYYCAAFRIGREYWGQGTQVTVSS”, “high polyreactivity”.
As to “QVQLVESGGGLVQAGGSLRLSCAASGFTFYKYAMGWYRQAPGKERELVAAISRRGTSTYYADSVKGRFTISRDNAKNTVYLQMNSLKPEDTAVYYCAAEIWSYPAYDYWGQGTQVTVSS”, the “polyreactivity (PSR sort gate)” value is given as “high polyreactivity”.
As to “QLQLVESGGGLVQAGGSLRLSCAASGFIFSTYAMGWYRQAPGKERELVAAISRSGGSTYYADSVKGRFTISRDNAKNTVYLQMNSLKPEDTAVYYCNLSQAAFRTGYDYWGQGTQVTVSS”, the “polyreactivity (PSR sort gate)” value is “high polyreactivity”.
With “QVQLVESGGGLVQAGGSLRLSCAASGLIFRVYAMGWYRQAPGKERELVAAITWSDGSTYYADSVKGRFTISRDNAKNTVYLQMNSLKPEDTAVYYCAAEFWYDWDYDYYYWGQGTQVTVSS”, the “polyreactivity (PSR sort gate)” value is given as “high polyreactivity”.
Turning to “QVQLVESGGGLVQAGGSLRLSCAASGFIFSRNAMGWYRQAPGKERELVARISRSGGRTYYADSVKGRFTISRDNAKNTVYLLMNSLKPEDTAVYYCATDHVRQSPYDYWGQGTQVTVSS”, the “polyreactivity (PSR sort gate)” value is “high polyreactivity”.
Then “QVQLVESGGGLVQAGGSLRLSCAASGSTSLVNAMGWYRQAPGKERELVAAITRGGNTYYADSVKGRFTISRDNAKNTVYLQMNSLKPEDTAVYYCNVGQDALYRLEYWGQGTQVTVSS”, with “low polyreactivity”.
On to “QVQLVDSGGGLVQAGGSLRLSCAASGSIFHVYAMGWYRQAPGKERELFAAIDRSGGSTYYADSVKGRFTISRDNAKNTVYLQMNSLKPEDTAVFYCAKDVLGGLITDGVGNDYWGQGTQLTVSS”, for which the “polyreactivity (PSR sort gate)” value is reported as “low polyreactivity”.
Consider “QVQLVESGGGLVQAGGSLRLSCAASGFIFARYAMGWNRQAPGKERELVAAISTSGGSTYYADSVKGRFTISRDNAKNTVYLQMNSLNPEDTAVYYCNKLRLSRLVHPSGYYWGQGTQVTVSS”, for which the “polyreactivity (PSR sort gate)” value was “high polyreactivity”.
As to “QVQLVESGGGLVKAGGSLRISCAASGFILGQYAMGWYRQAPGKERELVAAISRSSSTTYADSVKGRFTISRDKAKNTVYLQMNSLNPEDTAVYYCAAYYWYVTYFRREIAYEYWGQGTQVTVSS”, the “polyreactivity (PSR sort gate)” value is on record as “low polyreactivity”.
In the case of “QVQLVESGGGLVQAGGSLRLSCAASGRIFVKNAMGWYRQAPGKERELVATISSGGNTNYADSVKGRFTISRDNAKNTVYLQMNSLKPEDTAVYYCAAVWDLGDYELPYDYWGQGTQVTVSS” it was “low polyreactivity”; in that of “QVQLEESGGGLDQAGGSLRLSCAASGSTYAYAMGWYRQAPRKERELVAAITRSGGSTYYADSVKGRFTISRDNAKNTVYLQMNSLKPEDTAVYYCRGKSTTWRGSQMDYWGQGTQVTVSS”, “high polyreactivity”.
As to “QVQLVESGGGLVQAGGSLRLSCAASVRTFYRYAMGGYRQAPGKERELDAGISWRGGSTYYADSVKGRFTISRDNAKNTVYLQMNSLKPEDTAVYYCNAVTTPARTRLFKTVPYEYWGQGTQVTVSS”, the “polyreactivity (PSR sort gate)” value is “high polyreactivity”.
Regarding “QVQLVESGGGLVQAVGSLRLSCAASGSTFSRYAMGWYRQAPGKERELVAAISWGGNTYYADSVKGRFTISRDNAKNTVYLQMNSLKPVDTAVYYCNRYSKLYNTMDYWGQGTQVTVSS”, the “polyreactivity (PSR sort gate)” value was “high polyreactivity”.
Then “QVQLVESGGGLVQAGGSLRLSCAASGFTFNYNTMGWYRQAPGKERQLVAAISRSGGSTYYADSVKGRITISRDNAKNTVYLQMNSLKPEDTAVFYCAKDTYYPSSRYNRYYYWGQGTQVTVSS”, with “high polyreactivity”; and “QVQLVESGGGLVQAGGSLRLSCAASGLTFVWYAMGWYRQAPGKDRELVAAITLSGGSTYYADSGKGRFTISRDNAKNTVYLQMNSLIPEDTAVYYCAADGTYRPEDYDYWGQGTQVTVSS”, with “low polyreactivity”; and “QVQLVESGGGLVQAGGSLRLSCAASGSTFTTNVMGWYRQAPGKERELVAAISWSSGSTYYADSVKGRFTISRDNAKNTVSLPMNSLKPEDTAVYYCAARQVIFYPYSRYYYWGQGTQVTVSS”, with “high polyreactivity”.
In the case of “QVQLVESGGGLDQAGGSLRLSCAASGFIFNNYAMGSYRQAPGKERELVAAITWSGGGTYYADSVKGRFTISRDNAKNTVYLQMNSLKPEDTAVYYCADYYPAYRDEYWGQGTQVTVSS”, the “polyreactivity (PSR sort gate)” value was “high polyreactivity”.
Consider “QVQLVESGGGLVQAGGSLRLTCAASGGTFIKNAMGWYRQAPGKERELVAAISWSGGRTYYADSVKGRFTITRDNPKNTVYLPMNSLKPEDTAVYYCNARYAGRLSYSYEYWGQVTQVTVSS”, for which the “polyreactivity (PSR sort gate)” value is recorded as “high polyreactivity”.
For “QVQLVESGGGLVQAGGSLRLSCAASGIIFRYYAMGWYRQAPGKERELVAAISSSGVSTYYADSVKGRFTISRDNAKNTVYLQMNSLKPEDTAVYYCNAVIWVRQYFSRSSSNYWGQGTQVTVSS”, the “polyreactivity (PSR sort gate)” value is on record as “high polyreactivity”.
Regarding “QVQLVESRGCLVQPGGSLLLSCAASGIIFGHYVMGWYRQAPGKERELVAAISSRGGNTYYADSVKGRFTISRDNAKNTVYLQMNSLKPEDTAVYYCAADRYATPMDYWGQGTQVTVSS”, the “polyreactivity (PSR sort gate)” value was “high polyreactivity”.
As to “QVQLVESGGGLDQAGGSLRLSCAASGITFYRYVKGWYRQAPGKEREYVAAINWSTGTTNYADSVKGRFTISRDNAKNTVYFQMNILKPEDTAVYYCNARYRLRYIYSLRYDYWGQGTHVTVSS”, the “polyreactivity (PSR sort gate)” value is listed as “high polyreactivity”.
For the sequence “QVQLVESGGGLVQAGGSLRLSCVPPDLPSTLNVMGWYRQAPGKERELVAAISQRGGSTYYADSVKGRFTISRDNAKNTVYLEMNSLKPEDTAVYYCAAGPGDSGDDYWGQGTQVTVSS”, the “polyreactivity (PSR sort gate)” value was “low polyreactivity”.
Take “QVKLEDSGGGLVQAGGSLRLSCAASGSTFEKYVMGWYRQAPGKERELVAAITYSGDSTYYADSVKGRFTISRDNAKNTVYLQMNSLKPEDTAVYYCAAKTTRTSIPRKGRGYYYWGQGTQVTVSS”: the “polyreactivity (PSR sort gate)” value is “high polyreactivity”.
“QVQLVESGGGLVQAGGRLRLICAASGSTLYSYAMGWYRQAPGKEREFVAAISRRGGSTYYADSVKGRFTISRDNAKNTVYLQMNSLKPEDTAVYYCAARDSSYHWYGYWGQGTQVTVSS”: the “polyreactivity (PSR sort gate)” value is on record as “high polyreactivity”.
In the case of “QVQLVESGGGLVQAGGSLRLSCAASGNIFESYGMGWYRQAPGKERELVATINTSSGSTYYADSVKGRFTISRDNAKNTVYLQMNSLKPEDTAVYYCAVEGDYWYVSMYYWGQGTQVTVSS”, the “polyreactivity (PSR sort gate)” value is listed as “low polyreactivity”.
Turning to “QVQLVESGGGLVQAGVSLRLSCAASGSIFAYYAMGWYRQAPGKERELVATIRSSGGRTYYADSVKGRFTISRDNAKNNVYLHLNSLKPEDTAVYYCAAERSITYDYWGQGTQVTVSS”, the “polyreactivity (PSR sort gate)” value is recorded as “high polyreactivity”.
With “QVQLVESRGGLVQAGGILRLSCAACGSTFPKYAMGWYRQAPGKERELVAAITGISGRTYYADSLKGRFTISRDNAKNTVYLQMNSLKPEDTAVYYCNARIFAGWSIYNYWGQGTQVTVSS”, the “polyreactivity (PSR sort gate)” value was “high polyreactivity”.
Consider “QVQLVESGGGLVQAGGSLRLSCAASGITFFWYAMGWYRQAPGKERELVARITSDGSTSYADSVKGRFTISRDNAKNTVYLQMNSLKREDTAVYYCAADYSYIYQSWSGYENDYWGQGTQVTVSS”, for which the “polyreactivity (PSR sort gate)” value was “high polyreactivity”.
In the case of “QVQLVESGGGLVQAGGSLRLSCAASGSTFGRNAMGWYRQAPGKERELVAAISKTGGSTYYADSVKGRFTISRDNAKNTVYLQMNSLKPEDTAVYYCAARIRGFRTYYYWGQGTQVTVSS” it was “high polyreactivity”; in that of “QVQLVESGGGLVQAGGSLRLSCAASGSIFLPYAMGWYRQAPGKEREFVAAIRWSTGRTFYADSVKGRVTISRDNAKNTVYLQMNSLKPEDTAVYYCAAKYYDSWYTYRYDYWGQGTQVTVSS”, “high polyreactivity”; in that of “QVQLVESGGGLVQAGGSLRLSCAASGSTFATNTLGWYRQAPGKERELVAAISRGTSTKYADSVKGRFTISRDNAKNTVYLQMTCLKPEDTAVSYCNAVSRDKSLYDYWGQGTQVTVSS”, “high polyreactivity”.
Take “QVQLVESGGGLVQAGGSLRLSCAASGRIFKVYAMGWYIQAPGKERELVAVISRGGSTYYADSVKGRFTISRDNAKNTVYLQMNSLKPEDTAVYYCAARLTYTGGQGAYDYWGQGTQVTVSS”: the “polyreactivity (PSR sort gate)” value was “high polyreactivity”.
On to “QDQLVESGGGLVQAGGSLRLSCAASGVTFVTYAMGGSRQAPGKERELVAAITTGGSTNYADSVKGRFTISRDNAKNTVYLQMNSLKPEDTAVYYCAAQRVSVLLFVRHDYWGQGTQVTVSS”, for which the “polyreactivity (PSR sort gate)” value was “low polyreactivity”.
Regarding “QVQLVESGGGLVQAGGSLRISCAASGRIFATNAMGWYRQAPGKERELVAVITGGGDTNYADSVKGRFTISRDNAKNTVYLQMNSLKPEDTAVYYCAAEGSFYRYHVGSDYWGQGTQVTVSS”, the “polyreactivity (PSR sort gate)” value is reported as “low polyreactivity”.

Values taken from the nanobody polyreactivity screen of Harvey et al. (2022).
